In the nanobody polyreactivity screen of Harvey et al. (2022):

Test: yeast display, Sf9 membrane polyspecificity reagent, FACS + sequencing; frameworks hold sequencing errors
Procedure, shortened: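 Nanobodies came from a synthetic yeast display library in Saccharomyces cerevisiae BJ5465, induced with galactose for 36–48 hours and stained for 1 hour at 4 °C with 10% biotinylated, detergent-solubilized Sf9 membrane reagent. Cells were enriched on streptavidin microbeads and then FACS-sorted, with low and high (top ~1%) gates set on anti-HA fluorescence for expression and streptavidin fluorescence for reagent binding. Each polyreactivity label reflects the gate a clone came from. Genes were amplified by colony PCR, sequenced by MiSeq 2 × 250 and filtered by CDR length.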

**Q.** For “QVQLVESGGGLVQAGGSLRLSCADSGLIFYYYAMGWYRHAPGKERELVAAISYNGGTTYYADSVKGRFTISRDNAKNTVYLQMNSLNPEDTAVYYCAAEQLVSGYDYWGQGTQVTVSS”, which “polyreactivity (PSR sort gate)” value is on record?
**A.** low polyreactivity

**Q.** For “QVQLVESGGGLVQAGGSLRLSCADSGNIFGTYAMGWSRQAPGKERELVANISNDDRTNYADSVKGRFTISRDNAKNTVYLQMNSLKPEDTAVYYCAVEYPSIAYRKSSKTFDYWGQGTQVTVSS”, which “polyreactivity (PSR sort gate)” value is on record?
**A.** low polyreactivity

**Q.** For “QVQLVESGGGLVQAGGSLRLSCADSGNIFYKNTMGWYRQAPGKERELVAAISVSGGGTYYADSVKGRFTISRDNAKNTVYLQMNSLKPEDTAVYYCAATWRQHPGSMGYWGLGTQVTVSS”, which “polyreactivity (PSR sort gate)” value is on record?
**A.** high polyreactivity

**Q.** With “QVQLVESGGGLVQAGGSLRLSCADSGRIFGLNAMGWYRQAPGKEREFVAAIRWRGGSTYYADSVKGRFTISRDNAKNTVYLQMNSLKPEDTAVYYCAADRNLGVSRYGYWGQGTQVTVSS” as the sequence, how does the “polyreactivity (PSR sort gate)” value read?
**A.** high polyreactivity

**Q.** Which “polyreactivity (PSR sort gate)” value does the source give for “QVQLVESGGGLVQAGGSLRLSCADSGRIFNGYGMGWYRQAPGKERELVATISSSGDSTYYADSVKGRFTISRDNAKNTVYLQMNSLKPEDTAVYYCAKRARYKFGYWGQGTQVTVSS” here?
**A.** high polyreactivity

**Q.** With “QVQLVESGGGLVQAGGSLRLSCADSGRIFVHHDMGRYRQAPGKVRELVATITSGGSTYYADSVKGRFTISRDNAKNTVYLQMNSLKPEDTAVYYCAADSWDYDSRMDYWGQGTQVTVSS” as the sequence, how does the “polyreactivity (PSR sort gate)” value read?
**A.** low polyreactivity

**Q.** With “QVQLVESGGGLVQAGGSLRLSCADSGRNYIGNAMGWYIHAPGKEPELVAAISSSGGNTYYADSVKGRFTISRDNAKNTVYLQMTSLNPEDNAVYYCAVEVRTLVTYGRSEYYWGQGTKVTVSS” as the sequence, how does the “polyreactivity (PSR sort gate)” value read?
**A.** high polyreactivity

**Q.** For “QVQLVESGGGLVQAGGSLRLSCADSGRTFCKYVMRWYRQAPGKERELVAVISRPAGSTYYADSVKGRFTISRDNAKNTVYLQMNSLKPEDTAVYYCAKRPKNKPVLGDYDHWGQGTQVTVSS”, which “polyreactivity (PSR sort gate)” value is on record?
**A.** low polyreactivity

**Q.** For “QVQLVESGGGLVQAGGSLRLSCADSGRTFSPYAMGWYRQAPGKDRELVAAITSGGRTNFADSVKGRFTISRDNAKNTVYLQMNSLKPEDTAVYYCAARSGRYRWTRFDYWGQGTQVTVSS”, which “polyreactivity (PSR sort gate)” value is on record?
**A.** low polyreactivity

**Q.** For “QVQLVESGGGLVQAGGSLRLSCADSGRTFSSYAMGWYRQAPGKERELVARISSSGGRTSYADSVKGRFTISRDNAKNTVYLQMNSLKPEDTAVYYCAKTYHWLYDYWGQGTQVTVSS”, which “polyreactivity (PSR sort gate)” value is on record?
**A.** high polyreactivity

**Q.** With “QVQLVESGGGLVQAGGSLRLSCADSGRTFYRYAMVWYRQSPGKERELVAAITTSGGSTYYADSVKGRFTISRDNAKNTVYLQMNSLKPEDTAVYYCAATYYGYHIRDDYWGQGTQVTVSS” as the sequence, how does the “polyreactivity (PSR sort gate)” value read?
**A.** low polyreactivity

**Q.** For “QVQLVESGGGLVQAGGSLRLSCADSGRTFYYYAMGWYRQAPGKERELVASITYYADSVKGRFTISRDNAKNTVYLQMNSLKPVDTAVYYCAKDLYSNDLYRRYDYWGQGTQVTVSS”, which “polyreactivity (PSR sort gate)” value is on record?
**A.** low polyreactivity

**Q.** For “QVQLVESGGGLVQAGGSLRLSCADSGSIFRSYDMGRYSQAPGKERELVAGISYSGGSTYYADSVKRRFTISRDNAKNTVYLQMNSLKPEDTAVYYCNVDGGTYFFFVGAWGEYDYWGQGTQVTVSS”, which “polyreactivity (PSR sort gate)” value is on record?
**A.** low polyreactivity

**Q.** For “QVQLVESGGGLVQAGGSLRLSCADSGSIFYYNAMGWYRQAPGKERELVAAISVSGGSTYYADSVKGRFTISRDNAKNTVYLQMNSLKPEDTAVYYCAAEWLYYYWLPGRADYLEYDYWGQGTQVTVSS”, which “polyreactivity (PSR sort gate)” value is on record?
**A.** low polyreactivity

**Q.** With “QVQLVESGGGLVQAGGSLRLSCADSGSILGNAMVWYRQAPGKERELVAAITRGVSTYYADSVKGRFTISRDNAKNTVYLQMNSLKPEDTAVYYCYKTYVRGVHGVYLPITSYDYWGQGTQVTVSS” as the sequence, how does the “polyreactivity (PSR sort gate)” value read?
**A.** low polyreactivity

**Q.** Which “polyreactivity (PSR sort gate)” value does the source give for “QVQLVESGGGLVQAGGSLRLSCADSGSILVAKGMGWYRQAPGKESELVAGITTRGGNTYYADSVKGRFTISRDNAKNTVYLQMNSLKPEDTAVYYCAADHLSYRRRYEYWGQGTQVTVSS” here?
**A.** low polyreactivity

**Q.** With “QVQLVESGGGLVQAGGSLRLSCADSGSTFEYNDMGWYRQEPGKERELVASSTYYADSVQGRFTISRDNAKNTVYLQMNSLKPEDTAVYFCAREQGVNRNHDYWGQGTLVTVSS” as the sequence, how does the “polyreactivity (PSR sort gate)” value read?
**A.** low polyreactivity
